Results as given in patent US12624096B2, “Anti-tau antibodies and methods of use thereof” (GTInvent Limited, priority 2020, dated 2026).
Entries after “also recorded” stand apart in the source; their conditions may differ.

Legend:
hT40 = hT40 (Homo sapiens, UniProt P10636); test: Biacore X100 SPR, scAb captured via anti-HuCk, hT40 as analyte; assay type: binding; details: scAb, Table 23, T441 (hT40)
Summary of the method: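 Captured scAb on anti-HuCk CM5 surface (flow cell 1 as reference) in HBS-EP+, capture set for theoretical RMax 100 RU; hT40 injected multi-cycle (0.15625–100 nM) or single-cycle (6.25–100 nM), 120 s association, 420 s dissociation, glycine pH 2.0 regeneration. Kinetics and affinity from 1:1 binding model fit.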

dGA = dGA (Homo sapiens, UniProt P10636); test: Biacore X100 SPR, scAb captured via anti-HuCk, dGA as analyte; assay type: binding; details: dissociation rate
Experimental: Surface plasmon resonance (SPR) is widely regarded as the gold standard for real time measurement of protein-protein interactions such as antibody binding. All SPR experiments were carried out using a Biacore X100 machine and HBS EP+ running buffer (GE Healthcare). A ‘capture’ method was followed for affinity measurements, where an anti-human constant kappa chain (HuCk) antibody was conjugated to the surface of a CM5 sensor chip using an amine coupling kit and scAb molecules were immobilised via their HuCk domain. Amine coupling is a very common approach for immobilising the ligand to the chip surface. The chip surface has a dextran matrix derivatised with carboxyl groups, which after activation with N-hydroxysuccinimide (NHS) and 1-ethyl-3-(3-dimethylaminopropyl) carbodiimide (EDC), form reactive succinimide esters which allows the covalent capturing of the ligand via any available primary amine groups (e.g. Lysine) on the ligand (in this case anti-HuCk antibody). The capture antibody was diluted 1/100 in 10 mM Sodium acetate buffer pH 5.0 and passed over the activated chip surface for a period of at least 420 s. Final ligand immobilisation levels over 12,000 RU were deemed to be satisfactory.
Following immobilisation, the level of each scAb to be captured was identified using the standard SPR equation with a theoretical RMax of 100 RU. Analyte MW refers to the molecular weight of hT40 or dGA/dGAE molecules, while ligand MW refers to the molecular weight of the scAbs tested. RL is the desired capture level and S refers to the stoichiometric ratio:
The scAb to be tested was added only to flow cell 2 so that flow cell 1 could act as a control to subtract any interaction with the analyte and the chip surface. Both single and multi-cycle runs were utilised using wizards developed in the Biacore X100 control software which are both accepted methods of kinetic analysis (Karlsson, R., et al. Analyzing a kinetic titration series using affinity biosensors (2006) Analytical Biochemistry 349:136-47). The multi-cycle protocol was as follows-Three start-up cycles composed of an initial capture, to the desired level, of the scAb to be tested was performed followed by a 30 s injection of glycine buffer pH 2.0 after each cycle to regenerate the chip surface. The regeneration step removed any captured scAb whilst leaving the capture antibody intact and able to repeat the capture for the next cycle. Following three start-up cycles increasing concentrations (0.15625 nM-100 nM) of the target to be tested were added to the chip surface after the desired scAb capture. The target was added for a 120 s association period and 420 s dissociation period followed by another regeneration, 30 s injection of glycine buffer pH 2.0 in between each cycle.
The single cycle kinetics protocol was similar and utilised the same level of scAb capture. Three start-up cycles were used followed by 5 increasing concentrations of the analyte (6.25 nM-100 nM) for an association period of 120 s followed by a dissociation period of 420 s for each concentration. In single cycle kinetics the regeneration step was performed only after the final analyte concentration was added. Binding responses were analysed in Biacore X100 evaluation software and data fitted to a 1:1 binding model to obtain kinetic and affinity characterisation.

[1] = test system: alanine substituted 13mer tau peptides; test: Alanine scanning mutagenesis (ASM) peptide ELISA; assay type: binding, human; details: numbering according to SEQ ID NO: 1; description text 'may be'
Experimental: To further elucidate epitopes of the scAb panel, and identify the critical amino acids needed for binding, alanine scanning mutagenesis of the parent 13 aa peptides for scAbs CE2, S1D12, CA4 and S1G2 was performed. […] Briefly, 5 μg/ml streptavidin (Thermo Fisher) was adsorbed to Nunc 96-well MaxiSorp plates and following incubation at 37° C., for 1 h, the plates were washed as normal and blocked with 2% MPBS. N-terminally biotinylated peptides (Prolmmune Ltd) were added to the plates and incubated for 1 h at 37° C. Subsequently, test scAbs at starting concentrations of 100-500 nM was added and double diluted across the plate for each peptide and incubated for 1 h at 37° C. Rest of the ELISA was conducted as described above and the plates were read at absorbance 450 nm. Immunoreactivity of the scAb of interest was quantified as the % of scAb was bound for each peptide at a chosen concentration (FIG. 15-20).

human tau and mouse tau = test: Western blot of WT, L66+/+ and L1+/+ mouse brain homogenates; assay type: binding; details: 20 μg protein, 5-month-old mice
Experimental: Protein equivalent to 20 μg from each brain extract was separated using 4-20% bis-tris gels and run in 1×MES buffer.
A band is detected in each sample (WT, L66^+/+ and L1^+/+) with an apparent molecular weight of approximately 55 kDa. This band most likely corresponds to endogenous mouse tau which is of a similar size. In the L66^+/+ samples, a second band running at approximately 68 kDa is also detected. The presence of numerous other bands indicates proteolytic truncation of tau within brain homogenates.

hT40, sequence (P10636 1-441 isoform P10636-8): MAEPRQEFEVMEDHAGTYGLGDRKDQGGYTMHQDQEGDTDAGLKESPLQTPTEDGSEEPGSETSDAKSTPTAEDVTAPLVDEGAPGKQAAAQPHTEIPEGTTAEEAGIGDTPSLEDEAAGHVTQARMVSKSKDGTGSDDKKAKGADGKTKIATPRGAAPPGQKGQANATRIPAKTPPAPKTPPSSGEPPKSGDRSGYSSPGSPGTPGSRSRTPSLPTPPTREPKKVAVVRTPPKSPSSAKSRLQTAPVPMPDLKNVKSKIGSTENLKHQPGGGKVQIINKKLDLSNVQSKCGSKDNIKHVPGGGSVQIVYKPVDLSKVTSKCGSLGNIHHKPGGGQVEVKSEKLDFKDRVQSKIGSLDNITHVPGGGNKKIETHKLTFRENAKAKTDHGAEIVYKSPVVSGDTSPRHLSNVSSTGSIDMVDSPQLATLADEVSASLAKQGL
dGA, sequence (P10636 614-707): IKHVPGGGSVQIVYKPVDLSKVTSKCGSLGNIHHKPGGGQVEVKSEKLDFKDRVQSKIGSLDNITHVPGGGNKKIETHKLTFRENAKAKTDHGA

Molecule	ka (hT40) [M⁻¹ s⁻¹]	kd (hT40) [s⁻¹]	Kd (dGA) [s⁻¹]	Critical residues of the epitope [1]	bands detected in western blot of WT, L66+/+ and L1+/+ brain homogenates (human tau and mouse tau)
S1D12: anti-tau clone from immunised sheep, SEQ ID NO: 32 (protein, S1D12 amino acid sequence) scFv: QVQLQESGPSLVKPSQTLSLTCTVSGFSLNNNAVGWVRQAPGKVPESLVGCSSDGTCYYNSALKSRLDITRDTSKNQISLSLSSVTTDDAAVYYCTRGHYSIYGYDYLGTIDYWGPGLLVTVSSEGKSSGASGESKVDDQAVLTQPSSVSGSLGQRVSITCSGSSSNVGGGNSVGWYQHLPGSGLKTIIYDTNSRPSGVPDRFSGSRSGNTATLTINSLQAEDEGDYYCVTGDSTTHDDLVGSGTRLTVLG	1.252e+06	0.00015	0.000418	343 (K), 346 (F) and/or 349 (R)	numerous bands visible in each mouse sample
S1G2: anti-tau clone, SEQ ID NO: 81 (protein, S1G2 amino acid sequence) scFv: QVQLQESGPSLVKPSQTLSLTCTVSGFSLTSNSVGWVRQAPGKAPEWVAGIDTDGEEGYNPALNSRLSITRDTSKSQVSLSLSSVTSEDTAVYYCGRSYRADGLAYGYVQAIDYWGPGLLVTVSSEGKSSGASGESKVDDQAVVTQPSSVSGSLGQRVSITCSGSFIGISSVGWFQQLPGSGLRTIIVASDGRPSGVPDRFSMSKSGNTATLTISSLQAEDEADYFCGSSDRTPYTGVFGSGTRLTVLG	1.057e+06	0.00018	0.0003499	370 (K) and/or 374 (H)	numerous bands visible in each mouse sample; also recorded: able to detect the pathologic 10-kDa tau fragment
